Experimental data taken from patent publication US20070213253A1, “Synuclein Mutant Having Aggregation-Inhibitory Activity” (priority 2003, published 2007).

Biological target: T1, wild type α-synuclein (Homo sapiens, UniProt P37840)
T1 construct: made in house; host or cells: Escherichia coli (pTYB1/α-syn; strain ER2566 is named for the mutants)
Assay: Inhibition of fibril formation of wild type α-synuclein by partial structure peptide, TfT fluorescence
Assay type: biochemical
Conditions: peptide 0.2 mg/ml in 2 mg/ml wild type α-synuclein, 37° C.
Method: A synthetic α-synuclein partial structure peptide consisting of 10 amino acid residues of NH2-[…]COOH was dissolved at 0.2 mg/ml in a 2 mg/ml solution of purified wild type α-synuclein, and incubated at 37° C. Aliquot of 10 μl was collected in predetermined intervals. To the collected sample was added a buffer solution of 10 mM Tris-HCl, pH 7.4, containing a fluorescent dye thioflavine T (TfT), which specifically binds to a fibril structure, in a final concentration of 25 μM to make a volume of 100 μl, and fluorescence spectrum was monitored immediately (Ex 440 nm; Em 450-550 nm). The fibril formation rate and the amount thereof were determined from the increase in the fluorescence intensity of TfT.

decrease of the fibril formation ability of the wild type α-synuclein (to the extent of): about 20%
Substance: NH2-Val-Gly-Gly-Ala-Thr-Thr-Thr-Gly-Val-Thr-COOH (H-VGGATTTGVT-OH) [α-synuclein partial structure peptide, synthetic α-synuclein partial structure peptide consisting of 10 amino acid residues]
